In the nanobody polyreactivity screen of Harvey et al. (2022):

Experiment: yeast display, Sf9 membrane polyspecificity reagent, FACS + sequencing; frameworks hold sequencing errors
In short: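 Nanobodies came from a synthetic yeast display library in Saccharomyces cerevisiae BJ5465, induced with galactose for 36–48 hours and stained for 1 hour at 4 °C with 10% biotinylated, detergent-solubilized Sf9 membrane reagent. Cells were enriched on streptavidin microbeads and then FACS-sorted, with low and high (top ~1%) gates set on anti-HA fluorescence for expression and streptavidin fluorescence for reagent binding. Each polyreactivity label reflects the gate a clone came from. Genes were amplified by colony PCR, sequenced by MiSeq 2 × 250 and filtered by CDR length.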

Sequence	polyreactivity (PSR sort gate)
QVQIVESGAVIVQAGGSLRLSCAASGSTFGSYTMGWYRQAPGKERELVASISRDGRTKYADSVKGRFTISRDNATNTVYLQMKSLKPEDTAVYYCANSKWRGRGGTYDYWGQVTQVTVSS	high polyreactivity
QVQIVESGGCLVQAGGSLRLSCAASGGTIGGNAMGWYRQAPGKQREMVAAITDIGGSTYYSDSVKGRFTISRDNAKNTVSLQKNCLKPEDTSVYFCATDEASNQDATYLYYYWGQGTQVTVSS	low polyreactivity
QVQIVESGGGLEQAGGSLRLSCAASGRIFNRYAMGWYRQAPGKDWELVARNSWSGARTYYADSVKGRFTISRDNAKNTVYLQMNRLKPEDTAVSYCAAAVTYPAGGRTSLYEYWGQRTQVTVSS	high polyreactivity
QVQIVESGGGLFQAGGSLRISCAASGSTIRANPMGWYRQAPGKERELVAAITKNGGSTYYADSVKGRYTISRDNAKYTVYLPMNTLIPEDNGVYYCAARRSSRRPPYYYWGQGTQVTVSS	high polyreactivity
QVQIVESGGGLFQAGGSLRLSCAASGITFVFYAKRRYRQAPGKERELVAAISSSGGSTYYADSVKVRFTISRDYAKNSVYLQMKSLKPDDTAVYYCNAIVFSYQRAVRYDYWGQGTQVTVSS	high polyreactivity
QVQIVESGGGLLQAGGSLRLSCAASGGIFGRYAMGWYRQAPGKERELVAAITTRGTSTYYADSVKGRFTISRDNAMNTVYLQMNSLKPEDTAVYYCSAAYGRHPSSGSWGQGTQVTVSS	high polyreactivity
QVQIVESGGGLVKAGGSLRLSCAASGSTFERYAMGWYRQAPGKERELVAAINWSGGGTYYADSVKGRFTISRDNAKNTVYLQMNSLKPEDTAVYYCAADSGTVVFSLWWYEYYYWGQGTQVTVSS	low polyreactivity
QVQIVESGGGLVQAGGILRLSCASSRSIFTVNTMGWYRQEHGKETELVAAINSRGGTTYYADSVKGRFTISRDNAKNTVYLQMISLKPEDTAFYYCAARTRIGLLYDYWGQGTQVTVSS	high polyreactivity
QVQIVESGGGLVQAGGRLRLSCSASGSIFDWYDMGWYRQAPGKERELVAAITTGGITNYADSVKGRFTLSRDNAKNTVYLQMNSLKPEDTAVYYCAADSLGVYDGDYWGQGTQVTVSS	low polyreactivity
QVQIVESGGGLVQAGGSLRFSCAASGRTFWLNDMGWYRHAPGKERELVARISRRGGSTYYAHSVKGRFTISRDHAKNTVYLQIISLKPEDTAVYYCAAAIVTRSYKYDYWGQGTQVTVSS	high polyreactivity
QVQIVESGGGLVQAGGSLRIICAASGSTFDPNAMGWYRQAPGKERELVAGISTGGTRTYYADSVKGRFTISRDNAKNTVFLQLKSLKPEDTAVYYCAARFTYNVLDTIYRLYYWGQGTQVTVSS	high polyreactivity
QVQIVESGGGLVQAGGSLRISCAASGLTFHRYAMGRYRQAPGKERELVAAINYSGGRTYYADSVKGRFTISRDNAKNTVYLQMNSLKPVDTAVYYCAAPRASGYYWGQGTQVTVSS	high polyreactivity
QVQIVESGGGLVQAGGSLRISCAPSGLTFGYYAMGWYRQAPGTERELVAAITYRGGSTYYADSVKGRFTISRDNAKNTVYLQMNSLKPEDTAVYYCATDYFYYDYWGQGTQVTVSS	low polyreactivity
QVQIVESGGGLVQAGGSLRLICAASGRIFYRYAMGWYRQAPGKERELVAAISSGSSTNYADSVKGRFTISRDNAKNTVYLQMNSLKPEDTAVYYCNAERYGKSWRYCYWGQGTQVTVSS	high polyreactivity
QVQIVESGGGLVQAGGSLRLICAASGSTFSEYAMGWYRQAPGKERELVAAIRWSGGSTSYADSVKGRFTISRVNAKNTVYLQMNSLKPEDTAVYYCAAERFWYDGEVKLYVLSYYWGQGTQVTVSS	low polyreactivity
QVQIVESGGGLVQAGGSLRLRCAASGSISGRNGMGWYRQAPGKERELVAAISTSGASTYYADSVKGRFTISRDNSKNTVYLQMNSLKTEDTAGYYCARLWGRRGYGYWGQGTQVTVSS	high polyreactivity

Sequence	polyreactivity (PSR sort gate)
QVQIVESGGGLVQAGGSLRLSCAASGFIFWDYAMGWYRQAPGKERELVAAISDSGGDTYYADSVKGRFTISRDNAKNTVYLQMNSLKPEDTAVYYCAADVELWVFRGQQYDYWGQGTQVTVSS	low polyreactivity
QVQIVESGGGLVQAGGSLRLSCAASGFNYRGYAMGWYRQAPGKERELVASIRWNGGSTYYADSVKGRFTISRDNAKNTVYLLMNSLKPEDTAVYYCAAAYRYYGVAYGYDWGQGTQVTVSS	high polyreactivity
QVQIVESGGGLVQAGGSLRLSCAASGFTFYGYAMGLYRQAPGKERELVATISGRGGRTYYADSVKGLFTISRDNAKNTVYLQMNSLKPVDTAVYFCAAVSSYRYYGDYYWGQGTQVTVSS	high polyreactivity
QVQIVESGGGLVQAGGSLRLSCAASGFTFYYYAMGWYRQAPGKERELVAAIDTGGSTNYADSVKGRFTISRDNAKNTVYLQMNRLKPEDTSVYYCNADTPDHYGHYDYWGQGTQVTVSS	low polyreactivity
QVQIVESGGGLVQAGGSLRLSCAASGFTIPPYTMGWYRQAPRKEREFVATITASGGSTYYADSVKGRFTISRDNAKNTVYLQMNSLNPEDTAVYYCNADYYSLYFFAWYRTNDFWGQGTQVTVSS	low polyreactivity
QVQIVESGGGLVQAGGSLRLSCAASGGTFYLYAKGWYRQAPGKERELVAAITTSGGSTYYADSVKGRFTISRDHAKNTVYLQMNSLKPEDTAVYYCNKDLSSTKFDYWGQGTQVTVSS	low polyreactivity
QVQIVESGGGLVQAGGSLRLSCAASGITFGPYAMGWYRQAPWKERELVAAISYSGGNTYYADSVKGRFTISRDNAKNTVYLQMNSLKPEDTAVDYCARVQSLKYNYWGQGTQVTVSS	high polyreactivity
QVQIVESGGGLVQAGGSLRLSCAASGITFPRYAMGWYRQAPGKESELVATITSRGGSTYYADSVKGRFTISRDNAKNTVYLQMISLKPEDTAVYYFNDRHYIFWSRYDYWGQGTQVTVSS	high polyreactivity
QVQIVESGGGLVQAGGSLRLSCAASGITFSSYAMGWYRQAPGKERELVAAITRTGGRTYYADSVKGRFTISRDNAKNTVYLQMNSLKPEDTAVYYCAAYYIAYYYWGQGTQVTVSS	high polyreactivity
QVQIVESGGGLVQAGGSLRLSCAASGNNFRYNTMGWYRQAPGKERELVAVITRRGSSTYYADSVKGRCTISRDNAKNTVYLQMNRLKPEDTAVYYCAAAPYYVTLVTRRDYWGQGTQVTVSS	high polyreactivity
QVQIVESGGGLVQAGGSLRLSCAASGRIFRSNTMGWYRPAPGKERELVARISKRGGSTNYADSVKGRFTISRDIAKNTVYLQMNRLKPEDTAVYYCAARYYYAGYYVKYYYWGQGTQVTVSS	high polyreactivity
QVQIVESGGGLVQAGGSLRLSCAASGRIFYWNVMGWYRQAPGKERELVAAITRSSGGTSTYADSVKGRFTISRVNAKNTVYLQMNSLKPEDTAVYYCATRRRQAKSGRAYDYWGQGTQVTVSS	high polyreactivity
QVQIVESGGGLVQAGGSLRLSCAASGRTFAGNAMGWYRQAPGKERELVAGISSGGSTNNADSVKGRFTISRDNAKNTVYLQMNSLNPEDTAVYYCAKRYFRKGYPLFHYAYGYWGQGTQVTVSS	high polyreactivity
QVQIVESGGGLVQAGGSLRLSCAASGRTFIGNVMGWYRQAPGKERELVAAISKSGTRTYYADSVKGRFTISRDNAKNTFYLQMNSLKPEDTAVYYCAKDHYPRTDDFGYWGQGTQVTVSS	high polyreactivity
QVQIVESGGGLVQAGGSLRLSCAASGRTFKYYAMGWYRPAPGKERELVAAISYSGGSTYYADSVKGRFTISRDNAKNTVYLQMNSLKPEDTAVYYCAARFTRYYSGCDQKYDYWGQGTQVTVSS	high polyreactivity
QVQIVESGGGLVQAGGSLRLSCAASGRTFPYYVMGWYRHAPGKERELVATISSSGRTYYADSVKGRFTISRDNAKNTVYLQMNSLKPEDTAVYYCAARFRWNQNYHFYYWGQGTQVTVSS	high polyreactivity
